Results taken from patent publication US12414933B2, “Polyphosphazene drug carriers” (ONSELEX PHARMACEUTICALS, INC., priority 2019, dated 2025).

Test system: Sprague-Dawley rats
Assay: Intravenous toxicity study: maximum tolerated dose after a single IV injection, 7-day observation
Format: in vivo, rat
Source text: The objective of this study was to determine the maximum tolerated dose in test animals following a single parenteral administration, in this case an intravenous (IV) injection, of the drug delivery compositions to Sprague-Dawley rats followed by a 7-day observation period.
In this Example, drug delivery compositions were optimized to carry and deliver the active chemotherapeutic agent Paclitaxel (PTX at about 5%). (See, Table 5 infra). Briefly, under sterile conditions in a laminar flow cabinet sterile water for formation and injection purposes was added to the appropriate amount of drug deliver composition to provide concentrations of 350, 817, 1167, and 1750 mg/mL. The diluted drug deliver compositions were stirred, mixed, or vortexed as necessary to achieve sufficient distribution. The prepared drug deliver compositions were stored protect from light at ambient temperature. The final formulation for each concentration was passed through a 0.2 μm filter prior to administration. The target volume prepared for each dose was 1.55 mL. The actual volume dispensed post-filtering was recorded. Final formulations for administration can be used up to 4 hours after preparation.
Subjects in this Example consisted of age appropriate to weight intact male Sprague-Dawley rats. Various commercial sources of Sprague-Dawley rats are acceptable for supply of Subject animals. Maximum Subject animal weight at initiation of the administrations was 330 gm while minimum weight was 260 gm. Subject animals were housed, feed, provided watered ad libitum, and observed according to standard animal husbandry protocols. Subject animals were excluded for any observable disease or injury that could affect study outcome. […]

[NP(MPEG550)3(Lys-OEt)(AA)(PTX)]n [PETTAX-121]
Clinical results: morbidity / euthanasia (Group 4: single slow bolus IV 8750 mg/kg PETTAX-121 (PTX 437.5 mg/kg), 1 male rat): euthanized 20 hours after administration due to observed morbidity
Clinical results: tolerability / adverse reactions (Groups 1-3: single slow bolus IV 1750, 4083 and 5833 mg/kg PETTAX-121 (PTX 87.5, 204.2, 291.7 mg/kg), 1 male rat per group, 7-day observation): tolerated their respective administration well with no observed adverse reactions or clinically significant observations
Clinical results: physical changes (Groups 1-3: single slow bolus IV 1750, 4083 and 5833 mg/kg PETTAX-121, 1 male rat per group, 7-day observation): no significant physical changes
